Like-named read-outs stand apart in the source and are kept apart here.
Tests used:
[1] = target: Fructose 1,6-bisphosphatase II from Francisella tularensis (glpX gene product) (Francisella tularensis); assay: SEC
[2] = target: Fructose 1,6-bisphosphatase II from Francisella tularensis (glpX gene product) (Francisella tularensis); assay: SEC; remark: listed apart in the source

Work on “Fructose 1,6-bisphosphatase II from Francisella tularensis (glpX gene product) (enzyme)” yielded a stoichiometry N [1] of 2 and a stoichiometry N [2] of 4.

— publication PMC5698383 (Applied Biochemistry and Biotechnology, 2017)
